Reference: paper doi:10.1101/467423 (bioRxiv, 2018)

Biological target: the molecule itself
Assay: negative-stain electron microscopy

B1: Plasmodium falciparum actin I K270M mutant (natural protein)
chain: not shown
  binding result: binds
